{"source": "patent US11884710B2", "about": "“Peptide compounds and methods of use in wound healing” (priority 2013, dated 2024)", "key": {"PKCδ [1]": {"system": "PKCδ", "assay": "Immunofluorescence for PKCδ in HCEC monolayers", "format": "cell-based, human", "settings": "CAP37 250 and 500 ng/ml; 15 minutes; scratched and non-scratched monolayers", "protocol": "(§1) HCEC monolayers were grown to confluency and were scratched with a 10 μl pipette tip or left unscratched, and then the monolayers were treated for 15 minutes with (A-B) buffer, (C-D) PMA (1 μM), (E-F) 250 ng/ml CAP37, and (G-J) 500 ng/ml CAP37. Cells were stained for PKCδ (250 ng/ml; (A-H)), and PKCα (1 μg/ml; (I-J)) and detected using immunofluorescence (4 μg/ml, ALEXA FLUOR® 488 dye (Life Technologies Corp., Grand Island, N.Y.)). […] Scratched monolayers that were treated for 18 hours with CAP37 (250 ng/ml; (L)) or left untreated (K) were stained for PKCδ. […] Scale bars, 20 μm.\n(§2) Immunofluorescence: HCECs and primary HCECs were cultured on Lab-Tek® II glass chamber slides (Nunc, Rochester, N.Y.) and starved overnight in basal media. For wounding studies, monolayers were scratched with a 10 μl pipette tip or left unscratched and treated with 1 μM phorbol 12-myristate 13-acetate (PMA, Sigma-Aldrich), rCAP37 (25-500 ng/ml), or basal KSFM (Gibco) for 15 minutes. After treatment, the cells were fixed in 4% (v/v) formaldehyde solution (Thermo, Rockford, Ill.) in PBS (Gibco) for 20 minutes at room temperature followed by permeabilization in 0.5% TRITON™-X 100 (Mallinckrodt, St. Louis, Mo.) in PBS for 10 minutes. Remaining formaldehyde was quenched with 0.05 M ammonium chloride (NH4Cl, Sigma-Aldrich, St. Louis, Mo.) in PBS for 10 minutes. […]"}, "PKCα": {"system": "PKCα", "assay": "Immunofluorescence for PKCα in HCEC monolayers", "format": "cell-based, human", "settings": "CAP37 500 ng/ml; 15 minutes", "protocol": "as §1, §2"}, "PKCδ [2]": {"system": "PKCδ", "assay": "PKCδ siRNA knockdown and CAP37-induced corneal wound healing in vivo", "parameters": "species or system mouse", "settings": "CAP37 250 ng/ml", "protocol": "(A) siRNA directed against PKCδ or scrambled siRNA was injected into the mouse conjunctiva. The mouse corneal epithelium was removed with the AlgerBrush II. Corneal abrasions were treated at 0 and 16 hours with rCAP37 (250 ng/ml), or were left untreated (saline vehicle control). Wound healing was monitored at 0, 16, and 24 hours using fluorescein staining. Data are represented as the percentage of wound closure and are expressed as mean±SEM. The data are representative of at least 9 mice per group. *P<0.05 by unpaired t-test as compared to vehicle (normal saline) treated controls. The efficiency of the PKCδ knockdown in each cornea was confirmed by Western blot analysis 24 hours post-injection and determined in comparison to the scrambled siRNA-injected corneas. Data are representative of 22 experimental samples and are expressed as mean±SEM (***P<0.0005 by unpaired t-test). […]\nsiRNA transfection and gene silencing: Stealth RNAi™ (10 μM, Ambion®, Grand Island, N.Y.) directed against PKCδ or Stealth RNAi™ siRNA Negative Control Hi GC (10 μM, Ambion®) was delivered into the mouse conjunctiva through a 5 μl subconjunctival injection using a 33-gauge needle (Hamilton®, Reno, Nev.). […] Wound closure was quantitated at 16 and 24 hours as described. […]\nProtein (20 μg) from each sample of corneal homogenate was analyzed by electrophoresis on a 10% SDS-PAGE gel. […]"}}}
{"molecule": "CAP37: cationic antimicrobial protein of Mr 37 kDa; recombinant CAP37 produced in human embryonic kidney (HEK) 293 cells (protein) IVGGRKARPRQFPFLASIQNQGRHFCGGALIHARFVMTAASCFQSQNPGVSTVVLGAYDLRRRERQSRQTFSISSMSENGYDPQQNLNDLMLLQLDREANLTSSVTILPLPLQNATVEAGTRCQVAGWGSQRSGGRLSRFPRFVNVTVTPEDQCRPNNVCTGVLTRRGGICNGDGGTPLVCEGLAHGVASFSLGPCGRGPDFFTRVALFRDWIDGVLNNPGP", "values": [{"measurement": "PKCδ staining, in words", "setting": "PKCδ [1]", "result": "dose-dependent increase in PKCδ staining"}, {"measurement": "PKCα staining, in words", "setting": "PKCα", "result": "no increase in PKCα staining"}, {"measurement": "wound healing in response to CAP37, in words", "setting": "PKCδ [2]; corneas transfected with PKCδ siRNA, 16 or 24 hours", "result": "no significant increase in wound healing"}, {"measurement": "wound closure after CAP37, in words", "setting": "PKCδ [2]; corneas transfected with scrambled siRNA, 24 hours", "result": "expected increase in wound closure"}]}
